Sequences and labels used below:
B1: h1E9-1 (VH3-21-Vκ1-9) scFv (scFv)
scFv: MEVQLVESGGGLVKPGGSLRLSCAASGFTFSTFGMSWVRQAPGKGLEWVSTISGGGSDTYYPDSVQGRFTISRDNAKNSLYLQMNSLRAEDTAVYYCARQGYDVYSWFAYWGQGTLVTVSSGGGGSGGGGSGGGGSDIQLTQSPSFLSASVGDRVTITCRASESVDNSGISFMSWYQQKPGKAPKLLIYTASNQGSGVPSRFSGSGSGTEFTLTISSLQPEDFATYYCQQSKEVPWTFGQGTKVEIKGSGDYKDDDDKGSGHHHHHH
notes: Whole scFv chain with FlagHis tag
B2: h1E9-4 (VH3-7-Vκ1-9) scFv (scFv)
scFv: MEVQLVESGGGLVQPGGSLRLSCAASGFTFSTFGMSWVRQAPGKGLEWVATISGGGSDTYYPDSVQGRFTISRDNAKNSLYLQMNSLRAEDTAVYYCARQGYDVYSWFAYWGQGTLVTVSSGGGGSGGGGSGGGGSDIQLTQSPSFLSASVGDRVTITCRASESVDNSGISFMSWYQQKPGKAPKLLIYTASNQGSGVPSRFSGSGSGTEFTLTISSLQPEDFATYYCQQSKEVPWTFGQGTKVEIKGSGDYKDDDDKGSGHHHHHH
notes: as for B1
B3: h4B10-1 (VH3-15-Vκ3-11) scFv (scFv)
scFv: MEVQLVESGGGLVKPGGSLRLSCAASGFTFSTYGMSWVRQAPGKGLEWVATISGGGSNTYYSDSVKGRFTISRDDSKNTLYLQMNSLKTEDTAVYYCARQRDSAWFASWGQGTLVTVSSGGGGSGGGGSGGGGSEIVLTQSPATLSLSPGERATLSCRASENVDDYGVSFMNWYQQKPGQAPRLLIYPASNQGSGIPARFSGSGSGTDFTLTISSLEPEDFAVYYCQQSKEVPWTFGQGTKVEIKGSGDYKDDDDKGSGHHHHHH
notes: as for B1
B4: h4B10-2 (VH3-15-Vκ3-20) scFv (scFv)
scFv: MEVQLVESGGGLVKPGGSLRLSCAASGFTFSTYGMSWVRQAPGKGLEWVATISGGGSNTYYSDSVKGRFTISRDDSKNTLYLQMNSLKTEDTAVYYCARQRDSAWFASWGQGTLVTVSSGGGGSGGGGSGGGGSEIVLTQSPGTLSLSPGERATLSCRASENVDDYGVSFMNWYQQKPGQAPRLLIYPASNQGSGIPDRFSGSGSGTDFTLTISRLEPEDFAVYYCQQSKEVPWTFGQGTKVEIKGSGDYKDDDDKGSGHHHHHH
notes: as for B1
B5: h4B10-3 (VH3-15-Vκ4-1) scFv (scFv)
scFv: MEVQLVESGGGLVKPGGSLRLSCAASGFTFSTYGMSWVRQAPGKGLEWVATISGGGSNTYYSDSVKGRFTISRDDSKNTLYLQMNSLKTEDTAVYYCARQRDSAWFASWGQGTLVTVSSGGGGSGGGGSGGGGSDIVMTQSPDSLAVSLGERATINCRASENVDDYGVSFMNWYQQKPGQPPKLLIYPASNQGSGVPDRFSGSGSGTDFTLTISSLQAEDVAVYYCQQSKEVPWTFGGGTKLEIKGSGDYKDDDDKGSGHHHHHH
notes: as for B1
B6: m4B10 scFv (scFv)
scFv: MEVKLVESGGGLVKPGGSLKLSCAASGFTFSTYGMSWVRQTPEKRLQWVATISGGGSNTYYSDSVKGRFTISRDNAKNNLYLQMSSLRSEDTALYYCARQRDSAWFASWGQGTLVTVSAGGGGSGGGGSGGGGSDIVLTQSPASLAVSLGQRATISCRASENVDDYGVSFMNWFQQKPGQPPKLLIYPASNQGSGVPARFSGSGSGTDFSLNIHPMEEDDTAMYFCQQSKEVPWTFGGGTKLEIKGSGDYKDDDDKGSGHHHHHH
notes: Mouse single-chain antibody, whole chain with FlagHis tag
B7: h1E9-2 (VH3-21-Vκ3-11) scFv (scFv)
scFv: MEVQLVESGGGLVKPGGSLRLSCAASGFTFSTFGMSWVRQAPGKGLEWVSTISGGGSDTYYPDSVQGRFTISRDNAKNSLYLQMNSLRAEDTAVYYCARQGYDVYSWFAYWGQGTLVTVSSGGGGSGGGGSGGGGSEIVLTQSPATLSLSPGERATLSCRASESVDNSGISFMSWYQQKPGQAPRLLIYTASNQGSGIPARFSGSGSGTDFTLTISSLEPEDFAVYYCQQSKEVPWTFGQGTKVEIKGSGDYKDDDDKGSGHHHHHH
notes: as for B1
B8: h1E9-5 (VH3-7-Vκ3-11) scFv (scFv)
scFv: MEVQLVESGGGLVQPGGSLRLSCAASGFTFSTFGMSWVRQAPGKGLEWVATISGGGSDTYYPDSVQGRFTISRDNAKNSLYLQMNSLRAEDTAVYYCARQGYDVYSWFAYWGQGTLVTVSSGGGGSGGGGSGGGGSEIVLTQSPATLSLSPGERATLSCRASESVDNSGISFMSWYQQKPGQAPRLLIYTASNQGSGIPARFSGSGSGTDFTLTISSLEPEDFAVYYCQQSKEVPWTFGQGTKVEIKGSGDYKDDDDKGSGHHHHHH
notes: as for B1
B9: m1B10 scFv (scFv)
scFv: MSDVQLQESGPGLVKPSQSLSLTCTVTGHSITSDYAWNWIRQFPGNKLEWMGYISYSGRTSYNPSLTSRISITRDTSKNQFFLQLNSVTTEDTATYYCARGYALDYWGQGTSVTVSSGGGGSGGGGSGGGGSQIVLSQSPAILSASPGEKVTMTCRTSSSVNYMHWFQQKPGSSPKPWIYATSKLASGVPARFSGSGSGTSYSLTISRVEAEDAATYFCQQWISDPWTFGGGTKLEIKGSGDYKDDDDKGSGHHHHHH
notes: as for B6

T1 sequence (Q15116 25-167 limits assumed): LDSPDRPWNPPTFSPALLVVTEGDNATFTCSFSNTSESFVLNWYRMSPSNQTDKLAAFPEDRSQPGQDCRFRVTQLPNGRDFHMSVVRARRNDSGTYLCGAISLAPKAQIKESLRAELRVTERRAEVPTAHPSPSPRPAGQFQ

This assay addresses T1, Human PD-1 (ACROBiosystems, Inc., Catalog No. PD1-H5221) (human, UniProt Q15116 25-167).
T1 construct: Bought recombinant protein; also called huPD1-His; PD-1-his; not shown: His tag of the bought protein (huPD1-His)
Put plainly: SPR (Biacore), scFv captured on anti-FLAG, PD-1 as analyte. Here is the method:
Monoclonal anti-FLAG M2 IgG (Sigma-Aldrich #F9291) was immobilized onto a CMS chip (GE Life Sciences) using amine coupling chemistry (from Amine Coupling Kit, GE Life Sciences). The immobilization steps were carried out at a flow rate of 25 μl/min in 1×HBS-EP+ buffer (GE Life Sciences; 10× Stock diluted before use). The sensor surfaces were activated for 7 min with a mixture of NHS (0.05 M) and EDC (0.2 M). The Anti-FLAG M2 IgG was injected over all 4 flow cells at a concentration of 25 μg/ml in 10 mM sodium acetate, pH 4.5, for 7 min. Ethanolamine (1 M, pH 8.5) was injected for 7 min to block any remaining activated groups.
Off-rate and kinetic binding experiments were performed at 25° C. using 1×HBS-EP+ buffer. Test and control antibodies were injected over the Anti-FLAG surface at concentrations of 5-10 μg/mL for 12 seconds at a flow rate of 10 μl/min on flow cells 2, 3 and 4, followed by a buffer wash for 30 seconds at the same flow rate. Kinetic characterization of antibody samples was carried out with a single concentration of antigen (for off-rate ranking) or a 1:2 dilution series of antigen (for kinetic characterization) and 1 injection of 0 nM antigen (i.e., buffer alone). After capturing ligand (anti-PD-1 antibody) on the anti-FLAG surface, the analyte (huPD1-His) was bound at 50, 25, 12.5, 6.25 and 0 nM for 180 seconds, followed by a 600 second dissociation phase at a flow rate of 50 μl/min. Between each ligand capture and analyte binding cycle, regeneration was carried out using 2 injections of 10 mM glycine pH 2.0 for 30 seconds at 30 μL/min, followed by a 30 second buffer wash step.
The data was fit with the Biacore T200 Evaluation software, using a 1:1 Langmuir binding model. KD (affinity, nM) was determined as a ratio of the kinetic rate constants calculated from the fits of the association and dissociation phases.
On the technique in general: In SPR one partner is held on a chip, and binding of the other changes the refractive index at the surface.
Usually Kd stands for the concentration at which binding is half-saturated. Low readings indicate tighter binding, high ones weaker binding. The koff is a measure of how fast the partners let go of each other. By kon is commonly meant the second-order rate constant of association. The low end stands for slower complex formation, the high end for faster complex formation. Turning to B1, the dissociation constant Kd is 2.58 nM, the koff was determined as 0.000468 s⁻¹ and the association rate constant (kon) was found to be 182000 M⁻¹ s⁻¹.

B2 returned a Kd of 3.66 nM, a koff of 0.000679 s⁻¹ and a kon of 185000 M⁻¹ s⁻¹.

In the case of B3, the Kd worked out at 2.47 nM, the koff stood at 0.00299 s⁻¹ and the on-rate (kon) was determined as 1.21e+06 M⁻¹ s⁻¹.

As to B4, binding was characterised by a dissociation constant (Kd) of 2.79 nM, the koff is 0.00324 s⁻¹ and the kon came to 1.16e+06 M⁻¹ s⁻¹.

In turn, B5 gave an equilibrium dissociation constant (Kd) of 1.2 nM, a koff of 0.000617 s⁻¹ and a kon of 513000 M⁻¹ s⁻¹.

The molecule B6 returned a dissociation constant (Kd) of 5.14 nM, an off-rate (koff) of 0.000417 s⁻¹ and a kon of 81200 M⁻¹ s⁻¹.

On to B7, for which the affinity, expressed as Kd, was 38.5 nM; the off-rate constant (koff) came to 0.00182 s⁻¹; the kon was found to be 47400 M⁻¹ s⁻¹.

B8 gave a dissociation constant Kd of 3.15 nM, an off-rate constant (koff) of 0.000628 s⁻¹ and a kon of 200000 M⁻¹ s⁻¹.

Turning to B9, the Kd is 12.8 nM, the koff is 0.00239 s⁻¹ and the on-rate (kon) is 186000 M⁻¹ s⁻¹.

The values above are taken from patent US20210107981A1 (SUTRO BIOPHARMA, published 2021).
